Assay results from patent publication US20220289830A1 (STAIDSON BEIJING BIOPHARMACEUTICALS, published 2022).
Positions count from the first letter of the chain named.

B1: 7C1 (antibody, V domains shown)
VH: EVQLLESGGGLVQPGGSLRLSCTASGFTFSDNHMSWVRQAPGKGLDWVSGISESGGSTNYADSVKGRFSTSRDNSKSTLYLDMNSLRAEDTAIYYCAKGRFSTSSSHFYRAVYGMDVWGQGTAVTVSS
VL: DIQLTQSPSSLSASVGDRVTITCRASQGISSYLAWYQQKPGKAPKLLIYAASTLQSGVPSRFSGSGSGTDFTLTISSLQPEDFATYYCQQLSSYPLSFGGGTKVEIK
notes: also called optimized anti-PcrV mAb clone 7C1
B2: 4A10 (antibody, V domains shown)
VH: B1 VH with D31S, N32Y, H33P, T103D, S104A, S106E, Y109F
VL: B1 VL with A43T, S97T
notes: also called optimized anti-PcrV mAb clone 4A10
B3: 3A11 (antibody, V domains shown)
VH: B1 VH with D31S, N32Y, T103Q, Y109F
VL: B1 VL with S97T
notes: also called optimized anti-PcrV mAb clone 3A11
B4: 3B12 (antibody, V domains shown)
VH: B1 VH with D31S, T103D, S104E, S105Y, S106G, Y109F
VL: B1 VL with S97T
notes: also called optimized anti-PcrV mAb clone 3B12
B5: 3G3 (antibody, V domains shown)
VH: B1 VH with N32Y, H33P, N59Y, Y60D, T103A, S105A, S106G, Y109F
VL: B1 VL with S30R
notes: also called optimized anti-PcrV mAb clone 3G3
B6: 5B3 (antibody, V domains shown)
VH: B1 VH with N32Y, H33P, Y60D, T103Q, S104D, S106Y, Y109F
VL: B1 VL
notes: also called optimized anti-PcrV mAb clone 5B3
B7: 13-42 mAb (antibody, V domains shown)
VH: B1 VH with N32Y, H33P, Y60D, S102C, S104N, H107C, Y109F
VL: B1 VL
B8: 7B2 (antibody, V domains shown)
VH: B1 VH with N32Y, H33P, S104D, Y109F
VL: B1 VL
notes: also called optimized anti-PcrV mAb clone 7B2
B9: 3H10 (antibody, V domains shown)
VH: B1 VH with N32Y, H33P, Y60D, T103D, S104Y, S106Q, Y109F
VL: B1 VL with S92N, S97T
notes: also called optimized anti-PcrV mAb clone 3H10
B10: 6A10 (antibody, V domains shown)
VH: B1 VH with Y109F
VL: B1 VL
notes: also called optimized anti-PcrV mAb clone 6A10
B11: 3A9 (antibody, V domains shown)
VH: B1 VH with N32Y, H33S, T103D, S105T, S106K, Y109F
VL: B1 VL
notes: also called optimized anti-PcrV mAb clone 3A9
B12: 2B1 (antibody, V domains shown)
VH: B1 VH with D31S, N32Y, H33P, T103G, S104E, S106H, Y109F
VL: B1 VL
notes: also called optimized anti-PcrV mAb clone 2B1
B13: 8C1 (antibody, V domains shown)
VH: B1 VH with S104N, S106A, Y109F
VL: B1 VL with S97T
notes: also called optimized anti-PcrV mAb clone 8C1
B14: 7B1 (antibody, V domains shown)
VH: B1 VH with H33Y, G50V, S104L, Y109F
VL: B1 VL with S97T
notes: also called 7B1-IgG1; 7B1 mAb
B15: 6D10 (antibody, V domains shown)
VH: B1 VH with N32Y, H33P, S104D
VL: B1 VL
notes: also called optimized anti-PcrV mAb clone 6D10

What was measured:
[1] = target: T1, recombinant Pseudomonas aeruginosa PcrV, full-length (PAO), His-tagged (Pseudomonas aeruginosa); test: BLI
[2] = target: T1, recombinant Pseudomonas aeruginosa …; test: SPR (BIACORE)
[3] = target: T2, native PcrV on live Pseudomonas aeruginosa (strains O6-57/66, O11-PA103, O1-52/66, O16-177/81) (Pseudomonas aeruginosa); test: cell-based or functional assay
[4] = target: T2, native PcrV on live Pseudomonas …; test: cell-based or functional assay; remark: listed apart in the source
[5] = target: T2, native PcrV on live Pseudomonas …; test: cell-based or functional assay; remark: listed apart in the source
[6] = target: T2, native PcrV on live Pseudomonas …; test: cell-based or functional assay; remark: listed apart in the source
[7] = target: T1, recombinant Pseudomonas aeruginosa …; test: ELISA, PcrV coated on the plate, goat anti-human Fc-AP detection

Binder	Kd [1] [nM]	Kd [2] [nM]	RBC lysis assay IC50 (P. aeruginosa strain 57/66(O6)) [3] [µg/mL]	A549 cytotoxicity assay IC50 (P. aeruginosa strain PA103(O11)) [4] [µg/mL]	RBC lysis Average IC50 over the three strains [5] [µg/mL]	RBC lysis IC50, strain O1-52/66 [5] [µg/mL]	RBC lysis IC50, strain O6-57/66 [5] [µg/mL]	RBC lysis IC50, strain O16-177/81 [5] [µg/mL]	A549 cell lysis Average IC50 over the strains [6] [µg/mL]	A549 cell lysis IC50, strain O1-52/66 [6] [µg/mL]	A549 cell lysis IC50, strain O6-57/66 [6] [µg/mL]	A549 cell lysis IC50, strain O11-PA103 [6] [µg/mL]	A549 cell lysis IC50, strain O16-177/81 [6] [µg/mL]	EC50 [7] [µg/mL]
B1	0.101	0.0457	0.1	1.36	0.195	0.367	0.0767	0.141	1.18	2	0.496	1.12	1.09	0.134
B2	0.606	–	0.16	2.8	–	–	–	–	–	–	–	–	–	0.113
B3	0.126	–	–	0.91	–	–	–	–	–	–	–	–	–	0.0952
B4	0.167	–	0.16	2.68	–	–	–	–	–	–	–	–	–	0.118
B5	0.381	–	0.18	2.75	–	–	–	–	–	–	–	–	–	0.0936
B6	0.455	–	0.12	2.39	–	–	–	–	–	–	–	–	–	0.109
B7	0.414	–	0.23	2.67	0.355	0.472	0.13	0.464	1.38	2.34	0.891	1.21	1.08	0.132
B8	0.0875	–	0.05	2.32	–	–	–	–	–	–	–	–	–	0.0967
B9	0.779	–	0.16	1.78	–	–	–	–	–	–	–	–	–	0.149
B10	0.204	–	0.04	2	–	–	–	–	–	–	–	–	–	0.104
B11	0.533	–	0.23	1.21	–	–	–	–	–	–	–	–	–	0.116
B12	0.194	–	0.12	3.01	–	–	–	–	–	–	–	–	–	0.162
B13	0.33	0.0316	0.12	1.94	0.266	0.424	0.121	0.252	1.05	–	0.721	1.54	0.881	0.111
B14	< 0.001	0.0847	0.1	1.06	0.214	0.308	0.138	0.197	2.13	4.56	0.503	2.61	0.861	0.125
B15	–	0.052	0.16	2.63	–	–	–	–	–	–	–	–	–	–
